Assay [1] addresses Neuronal SNARE complex (VAMP2 on nanolipoprotein particles with flipped t-SNAREs Syntaxin-1 and SNAP-25 on tCells) (not stated | rat) (UniProt P63045).
The target is the same in assay [2]. This is another data set of the same source.
For assay [3] the target is unchanged. The source holds these as a separate data set.

These results are taken from PMC8294851.

Chain of UniProt P63045 (P63045 whole entry, chain 1 of 3): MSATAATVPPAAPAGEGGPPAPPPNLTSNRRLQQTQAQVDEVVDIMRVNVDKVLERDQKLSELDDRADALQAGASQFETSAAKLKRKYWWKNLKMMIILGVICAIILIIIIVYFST
Chain of UniProt P63045 (P32851 186-288, chain 2 of 3, further chain): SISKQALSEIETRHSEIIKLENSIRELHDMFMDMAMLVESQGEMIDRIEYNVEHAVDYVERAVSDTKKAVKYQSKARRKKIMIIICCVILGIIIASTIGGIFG
Chain of UniProt P63045 (P60881 2-206, chain 3 of 3, further chain): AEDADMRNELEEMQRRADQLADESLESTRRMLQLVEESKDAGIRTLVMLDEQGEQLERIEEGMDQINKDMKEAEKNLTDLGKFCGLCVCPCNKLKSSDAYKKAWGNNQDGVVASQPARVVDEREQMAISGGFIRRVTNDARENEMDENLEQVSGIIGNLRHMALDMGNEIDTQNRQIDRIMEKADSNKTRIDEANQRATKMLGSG

Turning to “Synaptotagmin-1 C2AB R398Q, R399Q (from UniProt P21707 96-421) (domain or fragment)”, the mean single open-pore conductance, mutant C2AB with VAMP2 NLPs and flipped t-SNARE cells, 100 μM free calcium and exogenous PI(4,5)P2, compared to wild-type C2AB in assay [1] amounted to 3 fold smaller.

“Synaptotagmin-1 soluble C2AB domains (rat Syt1 residues 96-421) (from UniProt P21707 96-421) (domain or fragment)”: the mean single fusion pore conductance, 10 μM soluble C2AB with VAMP2 NLPs and flipped t-SNARE cells, 100 μM calcium and exogenous PI(4,5)P2, compared to no Syt1 in assay [2] was 3 fold. For “Full-length Synaptotagmin-1 (pET28a-SUMO-synaptotagmin 1, residues 57-421), reconstituted into nanolipoprotein particles (from UniProt P21707 57-421) (natural protein)”, the mean single-pore conductance, fusion of NLPs carrying Syt1 and VAMP2 with flipped t-SNARE cells pre-incubated with diC8PI(4,5)P2, compared to SNARE-alone fusion in assay [3] came out at 3 fold.
